Tests used:
[1] = target: T1, human pro-MMP-9 (R&D, 911-MP) (human, UniProt P14780 20-707); test: SPR Biacore 3000, antibody amine-coupled to CM5 chip (direct capture)
T1 construct: Zymogen form; also called Pro-huMMP-9
Method: (§1) Experiments were performed at 25° C. with the help of a Biacore 3000 instrument. The MMP-9 binding protein (M0166F10) and the M0237-D02 antibody were coated to a CM5 chip either via standard amine coupling or using an anti-Fc antibody surface. Then either the active, human MMP-9 catalytic domain (BIOMOL, SE-244), the human pro-MMP-9 (R&D, 911-MP), the human TIMP-1 (R&D, 970-TM) or a h-MMP-9/h-TIMP-1 complex were flowed over the antibody surfaces, and binding was recorded.
(§2) It was shown that the human MMP-9 catalytic domain binds to M0166-F10, whether this antibody is directly captured via amine coupling or captured with an anti-Fc antibody surface.

[2] = target: T2, h-MMP-9/h-TIMP-1 complex (human, UniProt P14780 107-444; P01033 24-207, limits assumed); test: as above
T2 construct: also called huTIMP-1/cat-huMMP-9; MMP-9/TIMP-1 complex
T2 sequence (P14780 107-444 limits assumed, chain 1 of 2): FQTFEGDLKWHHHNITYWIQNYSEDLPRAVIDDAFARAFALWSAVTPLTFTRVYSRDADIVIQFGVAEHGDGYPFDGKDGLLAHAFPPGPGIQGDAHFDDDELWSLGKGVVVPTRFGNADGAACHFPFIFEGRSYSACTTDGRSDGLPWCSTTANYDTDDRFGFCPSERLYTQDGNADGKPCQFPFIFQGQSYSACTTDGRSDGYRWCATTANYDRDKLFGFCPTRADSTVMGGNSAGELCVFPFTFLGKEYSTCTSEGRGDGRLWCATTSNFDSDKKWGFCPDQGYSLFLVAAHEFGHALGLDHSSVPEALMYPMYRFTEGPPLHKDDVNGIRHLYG
T2 sequence (P01033 24-207 limits assumed, chain 2 of 2): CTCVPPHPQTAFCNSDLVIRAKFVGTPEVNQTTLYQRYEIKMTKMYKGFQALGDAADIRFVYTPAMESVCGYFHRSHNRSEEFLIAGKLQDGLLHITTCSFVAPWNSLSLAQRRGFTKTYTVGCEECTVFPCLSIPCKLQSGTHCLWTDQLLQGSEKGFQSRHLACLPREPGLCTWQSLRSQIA
Method: as §1, §2

[3] = target: T3, human TIMP-1 (R&D, 970-TM) (human, UniProt P01033 24-207); test: as above
T3 construct: also called huTIMP-1; h-TIMP-1
T3 sequence (P01033 24-207 limits assumed): as the sequence (P01033 24-207 limits assumed, chain 2 of 2) above
Method: as §1, §2

[4] = target: T4, active human MMP-9 catalytic domain (BIOMOL, SE-244) (human, UniProt P14780 107-444, limits assumed); test: plot of kobs vs antibody concentration from inhibition progress curves, 25 C
T4 construct: domain: catalytic domain; also called Cat-huMMP-9; cat-huMMP-9
T4 sequence (P14780 107-444 limits assumed): as the sequence (P14780 107-444 limits assumed, chain 1 of 2) above
Method: Materials: [0447] Substrate: Mca-KPLGL-Dap(Dnp)-AR-NH₂ (M-2350) from BACHEM (521575). A 10 mM stock solution was prepared in DMSO. [0448] Human MMP-9 catalytic domain (BIOMOL, SE-244). [0449] M0237-D02 hIgG1: 2517-068. [0450] All measurements were performed at 25° C. in TCNB: 50 mM Tris/HCl, 10 mM CaCl₂, 150 mM NaCl 0.05% Brij 35, pH 7.5. [0451] 96-well black plates from Perkin Elmer (6005270) [0452] Spectramax M2e to measure fluorescence emission of the substrate upon hydrolysis (λexc=328 nm and λₑₘ=393 nm)
The enzyme (at a final concentration ranging from 1.5 to 12.3 nM), the substrate (9 μM final) and the M0237-D02 antibody were mixed, and the fluorescence was immediately recorded in order to follow the hydrolysis of the substrate. The observed inhibition rate (kobs) was obtained by analyzing the progress curves with a single exponential. The value for kₒₙ and koff were calculated from the plot of the kobs vs. the antibody concentration using the following equation: […]

[5] = target: T4, active human MMP-9 catalytic domain …; test: enzyme inhibition with fluorogenic peptide substrate Mca-KPLGL-Dap(Dnp)-AR-NH2; Ki from IC50 vs substrate concentration, 30 C
Method: (§3) Materials: [0424] Substrate: Mca-KPLGL-Dap(Dnp)-AR-NH₂ (M-2350) from BACHEM (521575). A 10 mM stock solution was prepared in DMSO. [0425] Enzymes: [0426] Human MMP-9 catalytic domain (BIOMOL, SE-244). Enzyme concentration was measured by titration with TIMP-1 (2522-104) [0427] Mouse MMP-9 (R&D, 909-MM), APMA-activated. [0428] M0237-D02 hIgG1: 2517-014. Dialysed against TCN. [0429] TCNB: 50 mM Tris/HCl, 10 mM CaCl₂, 150 mM NaC, […] Brij 35, pH 7.5. [0430] 96-well black plates from Perkin Elmer (6005270) [0431] Spectramax M2e to measure fluorescence emission of the substrate upon hydrolysis (temperature control set at 30° C.; λexc=328 nm and λₑₘ=393 nm)
(§4) The enzyme (final concentration=0.23 and 0.17 nM for the human and mouse MMP-9, respectively) was preincubated with various concentrations (0-50 nM) of M0237-D02 for 1 h at 30° C. The substrate was then added to a final concentration ranging from 5 to 40 μM and initial rates were recorded.

[6] = target: Mouse MMP-9 (R&D, 909-MM), APMA-activated (mouse, UniProt P41245 108-730, limits assumed); test: as above
Chain of Mouse MMP-9 (R&D, 909-MM), APMA-activated (P41245 108-730 limits assumed): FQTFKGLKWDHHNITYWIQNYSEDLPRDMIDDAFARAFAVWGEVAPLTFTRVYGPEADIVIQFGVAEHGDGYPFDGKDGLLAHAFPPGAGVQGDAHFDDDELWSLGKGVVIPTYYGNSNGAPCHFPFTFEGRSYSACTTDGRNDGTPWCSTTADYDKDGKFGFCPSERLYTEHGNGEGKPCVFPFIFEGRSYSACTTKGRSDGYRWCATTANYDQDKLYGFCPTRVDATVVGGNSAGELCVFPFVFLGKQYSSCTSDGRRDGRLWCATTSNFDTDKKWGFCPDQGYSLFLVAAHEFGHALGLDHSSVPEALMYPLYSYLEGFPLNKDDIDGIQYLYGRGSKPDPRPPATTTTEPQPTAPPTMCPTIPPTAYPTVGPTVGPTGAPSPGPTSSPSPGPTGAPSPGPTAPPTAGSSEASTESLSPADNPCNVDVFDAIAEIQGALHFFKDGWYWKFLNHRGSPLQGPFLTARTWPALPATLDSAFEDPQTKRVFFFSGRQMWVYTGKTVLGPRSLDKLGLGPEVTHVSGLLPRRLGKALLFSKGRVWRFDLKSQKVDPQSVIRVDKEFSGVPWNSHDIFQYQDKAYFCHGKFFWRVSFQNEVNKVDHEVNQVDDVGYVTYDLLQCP
Method: as §3, §4

T1 sequence (P14780 20-707): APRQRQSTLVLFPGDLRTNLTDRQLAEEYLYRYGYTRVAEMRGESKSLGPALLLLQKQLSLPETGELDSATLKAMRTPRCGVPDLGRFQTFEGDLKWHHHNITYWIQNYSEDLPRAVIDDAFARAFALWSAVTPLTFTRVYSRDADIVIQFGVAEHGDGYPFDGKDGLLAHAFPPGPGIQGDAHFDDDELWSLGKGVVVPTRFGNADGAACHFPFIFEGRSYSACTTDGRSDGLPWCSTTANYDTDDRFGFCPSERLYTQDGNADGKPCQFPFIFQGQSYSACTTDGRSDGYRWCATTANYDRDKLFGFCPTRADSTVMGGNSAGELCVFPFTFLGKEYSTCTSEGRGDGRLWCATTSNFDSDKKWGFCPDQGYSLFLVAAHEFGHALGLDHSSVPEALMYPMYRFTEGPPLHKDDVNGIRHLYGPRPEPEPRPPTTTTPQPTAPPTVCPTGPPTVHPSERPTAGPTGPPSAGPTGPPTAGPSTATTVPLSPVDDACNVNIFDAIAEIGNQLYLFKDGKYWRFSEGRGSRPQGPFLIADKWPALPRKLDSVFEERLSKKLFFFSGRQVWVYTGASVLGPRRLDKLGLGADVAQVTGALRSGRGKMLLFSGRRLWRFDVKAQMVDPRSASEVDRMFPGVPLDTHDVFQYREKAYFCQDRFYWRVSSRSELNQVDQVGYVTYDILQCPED

Row | Binder | binding result [1] | binding result [2] | binding result [3] | koff [4] | kon [4] | Ki [5] | Ki [6]
1 | 539A-M0166-F10 (antibody, V domains shown, also called DL15) VH: EVQLLESGGGLVQPGGSLRLSCAASGFTFSPYLMNWVRQAPGKGLEWVSSIYSSGGGTGYADSVKGRFTISRDNSKNTLYLQMNSLRAEDTAVYYCARIYHSSSGPFYGMDVWGQGTTVTVSS VL: QSELTQPPSASAAPGQRVTISCSGSSSNIGSNTVTWYQKLPGTAPKLLIYNNYERPSGVPARFSGSKSGTSASLAISGLQSEDEADYYCATWDDSLIANYVFGSGTKVTVLG | no binding | no binding | no binding |  |  |  | 
2 | 539A-M0237-D02 hIgG1 (antibody, V domains shown, Tested as hIgG1; also called M237-D02; DL8) VH: EVQLLESGGGLVQPGGSLRLSCAASGFTFSQYPMWWVRQAPGKGLEWVSYIVPSGGRTYYADSVKGRFTISRDNSKNTLYLQMNSLRAEDTAVYYCAKDRAYGDYVGWNGFDYWGQGTLVTVSS VL: DIQMTQSPATLSLSPGERATLSCRASQSISSFLAWYQQKPGQAPRLLIYDASYRATGIPARFSGSGSGTDFTLTISSLEPEDYAVYYCQQRGNWPITFGQGTRLEIKR |  | no binding |  | ~0.0004 s⁻¹ | ~70000 M⁻¹ s⁻¹ | 0.92 nM | 1.3 nM
